PMC5308896, “A conformational switch regulates the ubiquitin ligase HUWE1” (eLife, 2017)
One block for each molecule: values may come before it.

Tests used:
[1] = biological target: HUWE1 (3951–4374), untagged (human) (UniProt Q7Z6Z7); test: AUC; sedimentation equilibrium, dimer to monomers (monomer-dimer self-association model, Sedphat); 10 µM protein, 4°C, 10 mM HEPES pH 8.0, 200 mM NaCl, 1 mM EDTA, 1 mM β-mercaptoethanol; 9000, 13,000 and 17,000 rpm
[2] = biological target: HUWE1 (3951–4374), crystallization construct with the N-terminal expression tag (human) (UniProt Q7Z6Z7); test: SEC-MALS; proteins injected at high concentration (~350 to 400 μM; highest point of Figure 3A, Figures 4A, 4F, 4G, Table 2); Superdex 200 10/300 GL, room temperature, 20 mM HEPES pH 8.0, 250 mM NaCl, 1 mM EDTA, 5 mM DTT
[3] = biological target: T1, HUWE1 (3951–4374), untagged (human, UniProt Q7Z6Z7 3951-4374); test: SEC; MBP-tagged activation segment (or MBP) and HUWE1 constructs, each alone at 120 μM and as a 1.5:1 molar mixture; Superdex 200 Increase 3.2/300, 4°C, 20 mM HEPES pH 8.0, 100 mM NaCl, 1 mM EDTA, 5 mM DTT; conditions: both partners purified
T1 construct: Monomer MW 49.752 kDa (AUC methods); source: LOBSTR RIL cells, purified (IMAC, TEV protease cleavage, second IMAC, gel filtration); not shown: His6, N-terminal, cleaved
T1 sequence (looked up): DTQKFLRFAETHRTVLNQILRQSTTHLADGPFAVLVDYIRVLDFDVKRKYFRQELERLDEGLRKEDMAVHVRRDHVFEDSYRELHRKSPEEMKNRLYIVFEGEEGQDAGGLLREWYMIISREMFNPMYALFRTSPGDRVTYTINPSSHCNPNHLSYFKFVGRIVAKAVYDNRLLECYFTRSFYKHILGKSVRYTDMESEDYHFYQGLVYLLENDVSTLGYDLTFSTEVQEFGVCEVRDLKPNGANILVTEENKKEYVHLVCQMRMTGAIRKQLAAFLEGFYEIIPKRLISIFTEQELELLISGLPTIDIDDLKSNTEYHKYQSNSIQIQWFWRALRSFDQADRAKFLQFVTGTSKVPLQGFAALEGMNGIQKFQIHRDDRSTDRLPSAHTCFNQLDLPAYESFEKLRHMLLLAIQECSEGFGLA

[4] = biological target: the molecule itself; test: SEC-MALS; proteins injected at high concentration (~350 to 400 μM; highest point of Figure 3A, Figures 4A, 4F, 4G, Table 2); Superdex 200 10/300 GL, room temperature, 20 mM HEPES pH 8.0, 250 mM NaCl, 1 mM EDTA, 5 mM DTT
HUWE1 (3843–4374) [5] = biological target: T2, HUWE1 (3843–4374) (human, UniProt Q7Z6Z7 3843-4374); test: SEC; as the SEC with p14ARF (45-75), but with p14ARF (45-64); result told only in one sentence of the methods, no data shown; conditions: both partners purified
T2 construct: source: LOBSTR RIL cells, purified (IMAC, gel filtration)
T2 sequence (looked up): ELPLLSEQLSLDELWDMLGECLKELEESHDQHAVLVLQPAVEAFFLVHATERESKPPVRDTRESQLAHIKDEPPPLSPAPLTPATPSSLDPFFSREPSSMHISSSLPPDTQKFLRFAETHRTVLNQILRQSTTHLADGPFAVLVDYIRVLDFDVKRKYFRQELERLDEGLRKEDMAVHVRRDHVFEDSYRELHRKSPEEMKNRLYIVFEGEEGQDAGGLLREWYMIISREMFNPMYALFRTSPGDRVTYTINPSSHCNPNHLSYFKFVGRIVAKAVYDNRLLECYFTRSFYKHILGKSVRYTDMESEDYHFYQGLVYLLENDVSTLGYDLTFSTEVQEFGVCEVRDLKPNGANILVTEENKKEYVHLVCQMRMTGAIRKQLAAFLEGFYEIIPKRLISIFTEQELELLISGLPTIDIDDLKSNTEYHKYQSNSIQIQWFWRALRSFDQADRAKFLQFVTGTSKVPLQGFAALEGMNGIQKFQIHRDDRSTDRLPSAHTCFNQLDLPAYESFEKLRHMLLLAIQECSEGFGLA

HUWE1 (3843–4374) [6] = biological target: T2, HUWE1 (3843–4374); test: SEC; HUWE1 constructs at 120 μM without and with a four-fold molar excess of p14ARF (45-75); 10% DMSO; Superdex 200 Increase 3.2/300, 4°C; co-elution of the peptide shown by SDS-PAGE; conditions: both partners purified

Kd [1]: 2900 nM
Molecule: HUWE1 (3951–4374), untagged (from UniProt Q7Z6Z7 3951-4374) (domain or fragment)

stoichiometry N [2]: 2
Molecule: HUWE1 (3951–4374), crystallization construct with the N-terminal expression tag (from UniProt Q7Z6Z7 3951-4374) (domain or fragment)

binding result [3]: binds
B1: MBP-tagged activation segment of HUWE1 (residues 3843–3902) (domain or fragment, human, UniProt Q7Z6Z7 3843-3902, looked up)
chain: ELPLLSEQLSLDELWDMLGECLKELEESHDQHAVLVLQPAVEAFFLVHATERESKPPVRD
notes: pETM41: N-terminal TEV protease-cleavable MBP-tag, C-terminal 3C protease-cleavable His6-tag; source: E. coli BL21(DE3), purified (IMAC, gel filtration); not shown: MBP, N-terminal, kept; His6, C-terminal, kept

B2: HUWE1 (3896–4374) (domain or fragment, human, UniProt Q7Z6Z7 3896-4374, looked up)
chain: SKPPVRDTRESQLAHIKDEPPPLSPAPLTPATPSSLDPFFSREPSSMHISSSLPPDTQKFLRFAETHRTVLNQILRQSTTHLADGPFAVLVDYIRVLDFDVKRKYFRQELERLDEGLRKEDMAVHVRRDHVFEDSYRELHRKSPEEMKNRLYIVFEGEEGQDAGGLLREWYMIISREMFNPMYALFRTSPGDRVTYTINPSSHCNPNHLSYFKFVGRIVAKAVYDNRLLECYFTRSFYKHILGKSVRYTDMESEDYHFYQGLVYLLENDVSTLGYDLTFSTEVQEFGVCEVRDLKPNGANILVTEENKKEYVHLVCQMRMTGAIRKQLAAFLEGFYEIIPKRLISIFTEQELELLISGLPTIDIDDLKSNTEYHKYQSNSIQIQWFWRALRSFDQADRAKFLQFVTGTSKVPLQGFAALEGMNGIQKFQIHRDDRSTDRLPSAHTCFNQLDLPAYESFEKLRHMLLLAIQECSEGFGLA
notes: source: LOBSTR RIL cells, purified (IMAC, gel filtration)
stoichiometry N [4]: 2

binding result (HUWE1 (3843–4374) [5]): binds
B3: p14ARF-derived peptide (residues 45–64), unlabelled (peptide, UniProt Q8N726 45-64, looked up)
peptide: LVLMLLRSQRLGQQPLPRRP
notes: p14ARF, human, residues 45–64; also called p14ARF (45-64); source: synthetic peptide, bought: Elim Biopharm

binding result (HUWE1 (3843–4374) [6]): binds
B4: p14ARF-derived peptide (residues 45–75) (peptide, UniProt Q8N726 45-75, looked up)
peptide: LVLMLLRSQRLGQQPLPRRPGHDDGQRPSGG
notes: p14ARF, human, residues 45–75; also called p14ARF (45-75); p14ARF-peptide; source: synthetic peptide, bought: Elim Biopharm
